Assay [1] addresses biotinylated antigen (biotinylated 16-branched citrullinated peptide). Nature of the assay: magnetic particle chemiluminescence immunoassay; antibody at 200 RU/ml; kit stored at 37 C for 7 days; mean of two.
For assay [2] the target is unchanged. Nature of the assay: magnetic particle chemiluminescence immunoassay; antibody at 80 RU/ml; kit stored at 4 C for 7 days.
The target is the same in assay [3]. Briefly: magnetic particle chemiluminescence immunoassay; antibody at 200 RU/ml; kit stored at 4 C for 7 days; mean of two.
The target is the same in assay [4]. Nature of the assay: magnetic particle chemiluminescence immunoassay, antigen on streptavidin particles, AP anti-human IgG detection; antibody at 10 RU/ml; kit stored at 4 C for 7 days.
The target is the same in assay [5]. Briefly: magnetic particle chemiluminescence immunoassay; antibody at 200 RU/ml; kit stored at 37 C for 7 days.
The target is the same in assay [6]. Nature of the assay: magnetic particle chemiluminescence immunoassay; antibody at 10 RU/ml; kit stored at 37 C for 7 days; mean of two.
For assay [7] the target is unchanged. Briefly: magnetic particle chemiluminescence immunoassay; antibody at 80 RU/ml; kit stored at 37 C for 7 days; mean of two.
For assay [8] the target is unchanged. Nature of the assay: magnetic particle chemiluminescence immunoassay; antibody at 10 RU/ml; kit stored at 37 C for 7 days.
Assay [9] has the same target. Briefly: magnetic particle chemiluminescence immunoassay; antibody at 200 RU/ml; kit stored at 4 C for 7 days.
For assay [10] the target is unchanged. Briefly: magnetic particle chemiluminescence immunoassay; antibody at 10 RU/ml; kit stored at 4 C for 7 days; mean of two.
Assay [11] shares this target. Nature of the assay: magnetic particle chemiluminescence immunoassay; antibody at 80 RU/ml; kit stored at 4 C for 7 days; mean of two.
For assay [12] the target is unchanged. Nature of the assay: magnetic particle chemiluminescence immunoassay; antibody at 10 RU/ml; kit stored at 4 C for 7 days.
Assay [13] shares this target. Nature of the assay: magnetic particle chemiluminescence immunoassay; antibody at 80 RU/ml; kit stored at 37 C for 7 days.

Where “and” joins values, the source holds several entries; their conditions need not be identical. Equal values may be shown once.

Turning to “anti-citrullinated peptide antibody (quality control material / calibrator of the kit)”, the RLU (AVER) turned out to be 2.38e+06 RLU in assay [1]; 2.4e+06 RLU in [3]; 124000 RLU in assay [6]; 902000 RLU in [7]; 129000 RLU in assay [10]; 889000 RLU in [11]. The RLU in assay [2] is 846000 RLU and 932000 RLU; in assay [4], 125000 RLU; in assay [5], 2.32e+06 RLU and 2.44e+06 RLU; in [8], 124000 RLU; in [9], 2.38e+06 RLU and 2.42e+06 RLU; in [12] it was 132000 RLU. Also, in assay [13], the RLU is 886000 RLU and 917000 RLU.

The values above are taken from patent publication US20210172946A1.
